First the molecules themselves.
B1: 3TEL (three tandem TELSAM monomers) of 3TEL-rigid-DARPin (domain or fragment, human)
chain: GSIRLPAHLRLQPIYWSRDDVAQWLKWAENEFSLRPIDSNTFEMNGKALLLLTKEDFRYRSPHSGDELYELLQHILKQRPGGGGSTSIRLPAHLRLQPIYWSRDDVAQWLKWAENEFSLRPIDSNTFEMNGKALLLLTKEDFRYRSPHSGDVLYELLQHILKQRPGGGGSTSIRLPAHLRLQPIYWSRDDVAQWLKWAENEFSLRPIDSNTFEMNGKALLLLTKEDFRYRSPHSGDVLYELLQHILKQR
notes: residue printed before TEL S47, left after SUMO cleavage; first TEL-SAM domain of 3TEL (human ETS variant transcription factor 6), the only one with V112E; flexible inter-TELSAM linker, as in PDB ID 2QAR; second TEL-SAM domain of 3TEL (human ETS variant transcription factor 6); third TEL-SAM domain of 3TEL (human ETS variant transcription factor 6); written apart for the contacts between the two …
B2: DARPin (Designed Ankyrin Repeat Protein) of 3TEL-rigid-DARPin (designed binder)
chain: DLGKKLLEAARAGQDDEVRILMANGADVNATDNDGYTPLHLAASNGHLEIVEVLLKNGADVNASDLTGITPLHAAAATGHLEIVEVLLKHGADVNAYDNDGHTPLHLAAKYGHLEIVEVLLKHGADVNAQDKFGKTAFDISIDNGNEDLAEILQKLN
notes: Designed Ankyrin Repeat Protein (DARPin), modelled from PDB ID 4J7W; Stood in the crystal joined on one chain with 3TEL; also called DAPRin; source: E. coli BL21(DE3), purified, as part of the 3TEL-rigid-DARPin chain
B3: 3TEL-rigid-DARPin (other, human)
chain: GSIRLPAHLRLQPIYWSRDDVAQWLKWAENEFSLRPIDSNTFEMNGKALLLLTKEDFRYRSPHSGDELYELLQHILKQRPGGGGSTSIRLPAHLRLQPIYWSRDDVAQWLKWAENEFSLRPIDSNTFEMNGKALLLLTKEDFRYRSPHSGDVLYELLQHILKQRPGGGGSTSIRLPAHLRLQPIYWSRDDVAQWLKWAENEFSLRPIDSNTFEMNGKALLLLTKEDFRYRSPHSGDVLYELLQHILKQRDLEAEAAAAEDLGKKLLEAARAGQDDEVRILMANGADVNATDNDGYTPLHLAASNGHLEIVEVLLKNGADVNASDLTGITPLHAAAATGHLEIVEVLLKHGADVNAYDNDGHTPLHLAAKYGHLEIVEVLLKHGADVNAQDKFGKTAFDISIDNGNEDLAEILQKLN
notes: residue printed before TEL S47, left after SUMO cleavage; first TEL-SAM domain of 3TEL (human ETS variant transcription factor 6), the only one with V112E; flexible inter-TELSAM linker, as in PDB ID 2QAR; second TEL-SAM domain of 3TEL (human ETS variant transcription factor 6); third TEL-SAM domain of 3TEL (human ETS variant transcription factor 6); rigid alpha-helical connection between 3TEL and …
B4: 1TEL (single TELSAM monomer) of 1TEL-flex-vWa (domain or fragment, human)
chain: GSIALPAHLRLQPIYWSRDDVAQWLKWAENEFSLRPIDSNTFEMNGKALLLLTKEDFRYRSPHSGDELYELLQHILAQ
notes: residue printed before TEL S47, left after SUMO cleavage; sterile alpha motif (SAM) domain of human ETS variant transcription factor 6 (TEL); Stood in the crystal joined on one chain with the vWa domain through one alanine; written apart for the contacts between the two parts

Series [1] concerns the molecule itself. Put plainly: crystal structure; 3TEL-rigid-DARPin, 15 mg/mL, sitting drop, HEPES pH 7.3-7.4 with PEG; P1211, 2 molecules per asymmetric unit; contacts within the polymer and the crystal lattice.
In series [2] the target is B1. The description is as above. Conditions: both partners purified.
Series [3] deals with the molecule itself. Put plainly: crystal structure; 1TEL-flex-vWa, 20 mg/mL, sitting drop, 100 mM Bis-Tris, pH 5.7, 3.0 M NaCl; P65, 1 molecule per asymmetric unit; contacts within the polymer and the crystal lattice.

Take B1: the binding result in series [1] is on record as “binds”.
Consider B2, for which the binding result in series [2] was “binds”.
In the case of B3, the binding result in series [1] is listed as “binds”.
Turning to B4, the binding result in series [3] was “binds”.
